Assay results reported in patent US20190177396A1 (INSERM INSTITUTE NATIONAL DE LA SANTE ET DE LA RECHERCHE …, published 2019).
Values belong to the molecule of their own block, whether it stands above or below them.

How the values were obtained:
[1] = biological target: human CD31 (PECAM-1) (human) (UniProt P16284); test: 10-colour flow cytometry on human peripheral blood leukocytes of a healthy donor, WM59-PE against PECAM 1.2-FITC; gate 2 (CD8) = memory CD8+ T cells
[2] = biological target: human CD31 (PECAM-1) (human) (UniProt P16284); test: 10-colour flow cytometry on human peripheral blood leukocytes of a healthy donor, WM59-PE against PECAM 1.2-FITC; gate 3 (CD4) = naive CD4+ T cells
[3] = biological target: human CD31 (PECAM-1) (human) (UniProt P16284); test: 10-colour flow cytometry on human peripheral blood leukocytes of a healthy donor, WM59-PE against PECAM 1.2-FITC; gate 1 (CD4) = activated CD4+ T cells
[4] = biological target: human CD31 (PECAM-1) (human) (UniProt P16284); test: 10-colour flow cytometry on human peripheral blood leukocytes of a healthy donor, WM59-PE against PECAM 1.2-FITC; gate CD20 = B lymphocytes
[5] = biological target: human CD31 (PECAM-1) (human) (UniProt P16284); test: 10-colour flow cytometry on human peripheral blood leukocytes of a healthy donor, WM59-PE against PECAM 1.2-FITC; gate 3 (CD8) = naive CD8+ T cells
[6] = biological target: CD31shed (residual cell-bound human CD31 after shedding between the 5th and 6th extracellular Ig-like domains) (human) (UniProt P16284); test: 10-colour flow cytometry on human peripheral blood leukocytes of a healthy donor, WM59-PE against PECAM 1.2-FITC; gate 2 (CD8) = memory CD8+ T cells
[7] = biological target: CD31shed (residual cell-bound human CD31 after shedding between the 5th and 6th extracellular Ig-like domains) (human) (UniProt P16284); test: 10-colour flow cytometry on human peripheral blood leukocytes of a healthy donor, WM59-PE against PECAM 1.2-FITC; gate 3 (CD4) = naive CD4+ T cells
[8] = biological target: CD31shed (residual cell-bound human CD31 after shedding between the 5th and 6th extracellular Ig-like domains) (human) (UniProt P16284); test: 10-colour flow cytometry on human peripheral blood leukocytes of a healthy donor, WM59-PE against PECAM 1.2-FITC; gate 1 (CD4) = activated CD4+ T cells
[9] = biological target: CD31shed (residual cell-bound human CD31 after shedding between the 5th and 6th extracellular Ig-like domains) (human) (UniProt P16284); test: 10-colour flow cytometry on human peripheral blood leukocytes of a healthy donor, WM59-PE against PECAM 1.2-FITC; gate CD20 = B lymphocytes
[10] = biological target: CD31shed (residual cell-bound human CD31 after shedding between the 5th and 6th extracellular Ig-like domains) (human) (UniProt P16284); test: 10-colour flow cytometry on human peripheral blood leukocytes of a healthy donor, WM59-PE against PECAM 1.2-FITC; gate 3 (CD8) = naive CD8+ T cells
the 23-mer peptide = test: BIAcore; format not described
[11] = biological target: the molecule itself; test: SPR (BIAcore 2000), peptide coated on CM5 chip, same peptide injected at 12.5-100 µM
Experimental: Plasmon Surface Resonance. Homophilic binding association and dissociation constants were calculated by surface plasmon resonance (BIAcore® 2000, GE). […] Dissociation was monitored for 300 seconds. Association (kon) and dissociation (koff) constants were calculated using the BIAevaluation 3.0 Software (GE).

Molecule: anti-CD31 monoclonal antibody clone PECAM 1.2
percent of gated cells in the lower right quadrant (dom1-/dom6+) [6]: 29.7 | percent of gated cells in the lower right quadrant (dom1-/dom6+) [7]: 28.1 | percent of gated cells in the lower right quadrant (dom1-/dom6+) [8]: 90.6 | percent of gated cells in the lower right quadrant (dom1-/dom6+) [9]: 12 | percent of gated cells in the lower right quadrant (dom1-/dom6+) [10]: 23.5

B1: mouse CD31 peptide 551-574 (peptide)
peptide: SSMRTSPRSSTLAVRVFLAPWKK
notes: Synthetic peptide, juxta-membrane 23 amino acids of the mouse CD31 ectodomain; In the SPR assay it was both coated on the CM5 chip and injected as analyte
Kd [11]: 17.8 µM | koff [11]: 0.00158 s⁻¹ | kon [11]: 134 M⁻¹ s⁻¹

Other lines, results leading:

percent of gated cells in the upper right quadrant (dom1+/dom6+) [1]: 70.3 | percent of gated cells in the upper right quadrant (dom1+/dom6+) [2]: 71.9 | percent of gated cells in the upper right quadrant (dom1+/dom6+) [3]: 9.4 | percent of gated cells in the upper right quadrant (dom1+/dom6+) [4]: 88 | percent of gated cells in the upper right quadrant (dom1+/dom6+) [5]: 76.5
Molecule: anti-CD31 monoclonal antibody clone WM-59

Kd (the 23-mer peptide): 17 µM
Molecule: alternatively spliced soluble CD31 (receptor)
